Laboratory results: publication PMC553973

Target: fibronectin 70 kDa N-terminal fragment
Assay: SPR; BIAcore X; FN 70 kDa fragment immobilised on a CM5 chip; HGF (30–500 nM) injected in HEPES saline pH 7.4 with 1 mM MgCl2, 2 mM CaCl2; equilibrium and Scatchard analysis; apparent Kd; n = 3

Kd: 300 nM | Kd of the high affinity site (two-site model): 15 nM | Kd of the low affinity site (two-site model): 4000 nM
Substance: hepatocyte growth factor (from UniProt P14210 32-728) (ligand)
